In the supplement of paper PMC10567573:
± gives the standard deviation.

Assay: protein stability index of a GFP-peptide fusion (GPS, HEK-293T) (PSI 1-6); higher = more stable
Conditions: c terminus: a fixed tail appended
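Note: 24-mer peptide tiles fused after GFP, lentivirally expressed, FACS-sorted into six equal bins by GFP/DsRed ratio, decoded by Illumina sequencing, PSI is the read-weighted mean bin number.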

Sequence | protein stability index (treatment: DMSO) | protein stability index (treatment: MLN4924 1 uM, 8 h)
KEEEEKDHNEAMKPEEPPQNLLRE [PCMTD1] | 5.39 ± 0.77 | 5.88 ± 0.09
KEERKTEVVMNSQQTPVGTPKDKR [PALM] | 5.43 ± 0.32 | 5.36 ± 0.32
KEPAEFNGDGAFLHDNHEQMPTEI [ZNF649] | 5.11 ± 0.25 | 5.16 ± 0.26
KESLCISITVSKVDKDQPSILNSC [FBXO34] | 2.28 ± 0.33 | 2.09 ± 0.28
KFDVLRAIELFHSYRETRRKEGIV [PTPN9] | 2.35 ± 0.079 | 1.91 ± 0.42
KFFFKSMDDDFGVVKEEISDDNAK [DVL3] | 4.76 ± 0.19 | 4.81 ± 0.099
KGEEVTPISAIRHEGKTDSERTDT [EPB41L3] | 5.44 ± 0.45 | 5.43 ± 0.3
KGNTTLQQLDLRWNNVGLLGGRAL [LRRC45] | 2.68 ± 0.034 | 2.73 ± 0.26
KGVDFQKFCMNGAALCALGKDCFL [ETS1] | 2.62 ± 0.4 | 2.09 ± 0.28
KHVEYEVSSQRFKSSVYRRYNDFV [SNX8] | 2.35 ± 0.3 | 2.8 ± 0.39
KIVEFNPMVLKGKIRPDSSRPELL [GLT8D2] | 3.09 ± 0.36 | 3.35 ± 0.39
KKDILLVNDHLLNFVRERTLDKRW [PDS5B] | 2.13 ± 0.26 | 2.35 ± 0.18
KKINTEGDVPPSMSGSCAVCVDRV [KLHDC2] | 4.18 ± 0.34 | 4.29 ± 0.17
KKTHETLSHAGQKATAAFSNVGTA [TPD52L1] | 4.44 ± 0.28 | 4.34 ± 0.21
KLAEAYLNLGPALSAALASSQKQH [C8orf76] | 2.68 ± 0.69 | 2.82 ± 0.97
KLGLHDNHWVPACHSFNRAIHKKA [FBXO34] | 2.79 ± 0.14 | 2.91 ± 0.18
KLIATSNKPAVKLLYNRSNNKYSY [KCTD10] | 2.23 ± 0.14 | 2.49 ± 0.23
KLVKKHAAQRSTETALYRKMLGNP [FKBP8] | 2.95 ± 0.47 | 3.04 ± 0.25
KNKKSSTGEASENGLEDIDRILER [TCF25] | 5.22 ± 0.48 | 5.49 ± 0.18
KNKPKMNYEKLSRGLRYYYDKNII [ETS1] | 2.71 ± 1.1 | 2.17 ± 0.28
KPLYPDDYVHISSKPCDLHCTTVD [ADAMTSL2] | 4.29 ± 0.35 | 4.21 ± 0.36
KPVLAKDSSNPYPNFNFNISHQGD [AASDHPPT] | 4.22 ± 0.22 | 4.01 ± 0.18
KRFEKQLTQIDGTLSTIEFQREAL [CHMP4C] | 3.98 ± 0.17 | 4 ± 0.27

Sequence | protein stability index (treatment: DMSO) | protein stability index (treatment: MLN4924 1 uM, 8 h)
KRNFISSKSKQPAGHRRPAGGIRE [C22orf31] | 4.07 ± 0.11 | 3.99 ± 0.22
KRQVPREQAQAYAERLGVTFFEVS [RAB40A] | 3.11 ± 0.17 | 3.21 ± 0.31
KSENARLVVQIDNAKLAADDFRTK [KRT33B] | 4.4 ± 0.41 | 4.25 ± 0.27
KSESSLPHQTSKMENLPGLASGPG | 4.87 ± 0.29 | 4.43 ± 0.33
KTKTSEYPIIFVYYLRKGKKINSN [SPANXN3] | 2.37 ± 0.59 | 2.01 ± 0.49
KTLAVKNEEIQSFIYSLKQMLLNV [FSD1] | 2.52 ± 0.37 | 2.14 ± 0.21
KTLLAIGGWNFSTQKFTDMVATAN [CHIT1] | 2.39 ± 0.34 | 2.14 ± 0.21
KTYHYLYLAMLERFQDGDNILEKE [FEM1B] | 2.03 ± 0.37 | 2.35 ± 0.2
KVLFALCALNALTTTVCLVAAALR [FAM189A2] | 3.13 ± 0.6 | 3.3 ± 0.21
KYKSFNRTAMPYGGYEKASKRMTF [MYOZ1] | 2.34 ± 0.31 | 2.57 ± 0.24
KYSFLQFDPAPRRGEPHVTRRTPD [PPP2CA] | 4.04 ± 0.27 | 3.85 ± 0.19
LAARVIVNHRIYYKGHIPEKLETF [FEM1C] | 2.82 ± 0.99 | 2.47 ± 0.52
LAATQGLAHMIAECKKLFQVPEEM [DLC1] | 2.52 ± 0.33 | 2.47 ± 0.37
LAFVIVLLAHRLRRWHKSRLLQAS [PCDHGA10] | 2.15 ± 0.48 | 2.21 ± 0.38
LAGGKLILSLEGGYNLRALAEGVS [HDAC6] | 2.99 ± 0.76 | 2.31 ± 0.47
LAPDFDRWLDESDAEMELRAKEEE [HACD3] | 5.52 ± 0.12 | 5.45 ± 0.21
LAQRTQQDSTRTVGERLQDTHSWK [TEKT4] | 4.42 ± 0.6 | 4.64 ± 0.21
LASDKTSAGNAPLNEEINIASSDS [C18orf25] | 5.48 ± 0.17 | 5.46 ± 0.16
LATSPITVGDLGIVRRRSRDVPES [YJU2B] | 4.42 ± 0.12 | 4.42 ± 0.2
LCPLCGKNFSNNSNLIRHQRIHAA [ZNF263] | 3.97 ± 0.5 | 4.12 ± 0.47
LDPHFVPTELWPQEAVPLGLGLED [TEX19] | 5.13 ± 0.3 | 4.91 ± 0.17
LEESDIDRDGTINLSEFQHVISRS [CIB1] | 4.69 ± 0.24 | 4.75 ± 0.084
LEFRKSMYEEEINETRRKHETRLV [LMNB1] | 4.02 ± 0.21 | 4.06 ± 0.25

Sequence | protein stability index (treatment: DMSO) | protein stability index (treatment: MLN4924 1 uM, 8 h)
LELLLDASALTLVLGGRRLRRAWF [SCNN1D] | 2.94 ± 0.81 | 2.4 ± 0.58
LERQNQEYQVLLDVKARLEGEIAT [KRT36] | 3.93 ± 0.077 | 4.02 ± 0.2
LESLRTAQKTALLQDGRRKVHYLF [DPCD] | 2.19 ± 0.22 | 2.45 ± 0.37
LESSEELLETANQTLQAMDSEDFP [FSD1] | 5.4 ± 0.19 | 5.57 ± 0.1
LETMARNEVIADINCKGRSKSNLG [OSBPL1A] | 4.46 ± 0.39 | 4.38 ± 0.39
LFAIANGFSPSYEFFAVTRFLVGM [SLC22A15] | 3.06 ± 0.34 | 2.57 ± 1.3
LFDMCGISEAQLKDRETSKVIYDF [WASL] | 2.58 ± 0.16 | 2.7 ± 0.3
LFFPVIYDVKYLMKSCKNLKGGLQ [CNOT7] | 2.72 ± 0.35 | 2.5 ± 0.28
LFGDAFAASPGEAPAASEGAAAPA [SNAP91] | 5.07 ± 0.3 | 5.15 ± 0.15
LFPQWHLPIKIAAIIASLTFLYTL [STEAP1] | 3.39 ± 0.8 | 3.13 ± 0.48
LGEEWSLHKIYLCQSGYFSSMFSG [GMCL1] | 2.72 ± 1.1 | 3.4 ± 0.97
LGETPENSNLEEPLNPKPHKKKSP [ZNF449] | 5.41 ± 0.38 | 5.47 ± 0.12
LGGEQAEEKAFESVIEPVQESSFR [MIA2] | 5.16 ± 0.54 | 5.44 ± 0.1
LGLGTRESHSCPQQVPMPPGQEAQ [NEK8] | 4.98 ± 0.19 | 4.87 ± 0.097
LGPCVVGYGIYYFIYSTWKGRTIY [SAT2] | 2.97 ± 0.28 | 2.97 ± 0.51
LHEALQDYEAGQHMEDPRRAGKML [ESRRG] | 4.74 ± 0.29 | 4.68 ± 0.38
LHRESSNFDSIYICPSTFACAQLA [HDAC6] | 2.15 ± 0.46 | 2.11 ± 0.16
LHYFPFFLMGRVLYFHHYFPAMLF [POMT2] | 3.09 ± 0.93 | 2.58 ± 0.52
LIKLGLERFHGVGILGFNSAEWFI [ACSBG2] | 1.91 ± 0.25 | 2.13 ± 0.65
LINHKKAEDTEKKDEPSKYNQQQA [CEP70] | 5.4 ± 0.21 | 5.26 ± 0.38
LIQHQRIHKGEKPYQCSQCSKSYS [ZSCAN9] | 2.89 ± 0.3 | 3.26 ± 0.26
LKPLCGCHSFAAAADGPTVCCNPY [SMAD6] | 2.75 ± 0.5 | 2.92 ± 0.39
LKYENDYPSVILRDPLQTDTLQND [ETS1] | 4.2 ± 0.31 | 4.53 ± 0.34

Sequence | protein stability index (treatment: DMSO) | protein stability index (treatment: MLN4924 1 uM, 8 h)
LLFSDKNVNSNLITWNRVVLLHGP [TRIP13] | 2.91 ± 0.79 | 2.28 ± 0.53
LLGRERDRVQVERDGLAEDLAALK [PRPH] | 4.2 ± 0.26 | 4.37 ± 0.18
LLPDGRHAVVEVEDVPLAAKLVDL [TAF7L] | 4.28 ± 0.3 | 4.22 ± 0.18
LLQADREHLPVKPDTMEKLRTHID [DENND6A] | 3.86 ± 0.36 | 3.92 ± 0.12
LLSIGPELPKPEVISQLEQGTELW [ZNF8] | 4.19 ± 0.28 | 3.54 ± 0.099
LMRHGMEKIWRPNRVFSLQDLCCR [RAB40C] | 2.74 ± 0.14 | 2.71 ± 0.27
LNFKAEPESETSILLSWTPPRSDT [PTPRD] | 3.3 ± 0.36 | 3.45 ± 0.28
LNKPALQAQPLRTTSTLASSLPGH [EHMT1] | 3.81 ± 0.14 | 3.91 ± 0.28
LNQGSVFQEYDTDCEVFRQRFRQF [ZNF449] | 2.98 ± 0.27 | 3.19 ± 0.12
LPGLAGPSGEMVKSTTSLTSSSTS [MLH1] | 4.83 ± 0.17 | 4.82 ± 0.058
LPLLRQTAGKVLAHFYGVKLEGKV [ESRRA] | 2.26 ± 0.31 | 2.11 ± 0.18
LPNTLLRKDKDVARLQDFQELELV [ANKRD40] | 3.76 ± 0.11 | 3.66 ± 0.29
LPREEEIVFPEKLNGSVLPGSGAP [ADAMTS4] | 4.49 ± 0.45 | 4.63 ± 0.46
LPSENLGKEPLDPDPSHSPSDKVG [TOR1AIP2] | 5.42 ± 0.22 | 5.494 ± 0.038
LPSWADICTNLCEALQNFFSLACS [M1AP] | 2.89 ± 0.31 | 2.9 ± 0.14
LQAKQDGKKDVSHSSPVDLKIPQV [LCOR] | 4.94 ± 0.21 | 4.92 ± 0.06
LQPPHESRPQPIYYGFSESAESQG [ADAMTSL2] | 4.18 ± 0.39 | 4.22 ± 0.56
LQQLLVLQPEQQLNIYKTLKTHLI [CDS1] | 2.4 ± 0.55 | 2.17 ± 0.36
LRAELTKVEEEIVTLRQVLAAKER [TPD52L2] | 2.93 ± 0.31 | 3.45 ± 0.3
LRGAKAFRLPGLSRREREPEPPAA [FCHO1] | 4.37 ± 0.28 | 4.14 ± 0.29
